{
  "source": "patent US10919943B2",
  "about": "“Mutant proteins enabling agrochemical control of plant gene expression” (The Regents of the University of California, priority 2016, dated 2021)",
  "molecules": {"B1": {"name": "HAB1*: catalytically inactive orthogonal pentuple HAB1 mutant (protein, listed as Arabidopsis thaliana)", "chain": "MTPAVAMTLSLAANTMCESSPVEITQLKNVTDAADLLSDSENQSFCNGGTECTMEDVSELEEVGEQDLLKTLSDTRSGSSNVFDEDDVLSVVEDNSAVISEGLLVVDAGSELSLSNTAMEIDNGRVLATAIIVGESSIEQVPTAEVLIAGVNQDTNTSEVVIRLPDENSNHLVKGRSVYELDCIPLWGTVSIQGNASEMEAAFAVSPHFLKLPIKMLMGDHEGMSPSLTHLTGHFFGVYDGHGGHKVADYCRDRLHFALAEEIERIKDELCKRNTGEGRQVQWDKVFTSCFLTVDGEIEGKIGRAVVGSSDKVLEAVADETVGSTAVVALVCSSHIVVSNCGDSRAVLFRGKEAMPLSVDHKPDREDEYARIENAGGKVIQWQGARVFGRLAMSRSIGDRYLKPYVIPEPEVTFMPRSREDECLILASDGLWDVMNNQEVCEIARRRILMWHKKNGAPPLAERGKGIDPACQAAADYLSMLALQKGSKDNISIIVIDLKAQAKFKTRT"}},
  "experiment": "Phosphatase activity of recombinant GST-HAB1 proteins (4-methylumbeliferyl phosphate)",
  "assay_type": "biochemical",
  "settings": "1 μg protein, percent control (GST-HAB1); FIG. 7",
  "from_the_text": "In the presence of ABA, wild type PYR1 binds to HAB1 and docks into its active site, which inhibits its enzymatic activity by blocking access of substrates. To characterize the orthogonal PYR1^! and HAB1^! interaction biochemically, we produced recombinant forms of each protein in E. coli, along with the wild type form, and tested the wild type and orthogonal mutant for their ability to inhibit HAB1 and HAB1^! activities in vitro. We cloned PYR1^! into pET28 to generate 6×-His tagged receptor and cloned HAB1^! into pGEX-4T-1 to create a GST-fusion protein. The previously constructed (S.-Y. Park et al., 2009) wild type 6×-His-PYR1 and GST-HAB1 constructs were used for producing recombinant wild type proteins. The 6×-His-tagged receptors and GST-tagged PP2Cs were expressed and purified as previously described. […] The plates were read using a Victor 2 plate reader (PerkinElmer) (355 nm excitation, 460 nm emission) and assays run in triplicate. The PP2C activity values reported are expressed as percent control values, which were calculated by including the carrier solvent (1% DMSO) and the specific receptor assayed, but no ligand. […]\nTo characterize HAB1^!-3 and HAB1* in vitro, we cloned them into pGEX-4T-1 to create GST-fusion proteins. […] The PP2C activity values reported are expressed as percent control (GST-HAB1) from triplicate measurements.",
  "note": "Marks after values point to notes of the source that are not given here.",
  "data": [
    {"molecule": "B1", "values": [
      {"measurement": "catalytic activity in vitro", "value": "Neither HAB1^!-3 or HAB1* display detectable catalytic activity"}
    ]}
  ]
}
